This is an account of results in patent US20080050375A1 (Eli Lilly, published 2008).

Positions count from the first letter of the chain named.

For assay [1], the target named is T1, TGF-beta 1 mutein (R25K, K26R, V33I, P87T, V89L, K95T) (Homo sapiens (Human), UniProt P01137 279-390, Mature TGF-beta 1 is a disulfide-linked homodimer; one monomer chain is given.).
T1 chain: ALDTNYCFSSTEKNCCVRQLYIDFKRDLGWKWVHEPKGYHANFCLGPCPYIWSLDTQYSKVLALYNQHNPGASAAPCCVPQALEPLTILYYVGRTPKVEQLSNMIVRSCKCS
In words: laser desorption/ionization time-of-flight MS on chips (Ciphergen).

The target in assay [2] is human TGF-beta 1 (R&D Systems, Cat # 240-B/CF) (human) (UniProt P01137). Put plainly: cell-based or functional assay.
The target in assay [3] is T2, human TGF-beta 3 (RDI, Cat # RDI-1036/CF) (human) (UniProt P10600).
T2 sequence (looked up): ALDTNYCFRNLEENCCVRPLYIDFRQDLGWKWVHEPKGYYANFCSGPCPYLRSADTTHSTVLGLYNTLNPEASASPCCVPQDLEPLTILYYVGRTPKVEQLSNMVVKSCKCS
In words: Biacore SPR, equilibrium fit, mAb captured on Protein A, TGF-β3 injected. On the technique in general: SPR reads the build-up and loss of mass on a sensor chip optically.

Assay [4] has as its target human TGF-beta 1 (R&D Systems, Cat # 240-B/CF) (human) (UniProt P01137). Put plainly: Biacore SPR, mAb captured on Protein A, TGF-beta 1 injected.
The target in assay [5] is T2, human TGF-beta 3 (RDI, Cat # RDI-1036/CF) (human). In words: ratio of Biacore Kd for TGF-β3 to Kd for TGF-β1.
In assay [6] the target is T3, latent TGF-beta 1 (UniProt P01137 30-390, limits assumed).
T3 construct: Latent complex (pro-peptide with mature TGF-beta 1); also called Latent TGF-β1; latent form of TGF-beta 1
Put plainly: Biacore SPR, mAb captured on Protein A, 5 nM ligand injected; stoichiometry from captured signals. The protocol:
(§1) BIAcore methods are used to determine the ability of invention mAb compositions to bind other entities, specifically the latent form of TGF-beta 1 or TGF-beta 3. All measurements are performed at room temperature. Samples are dissolved in HBS-EP buffer (150 mM sodium chloride, 3 mM EDTA, 0.01% (w/v) surfactant P-20, and 10 mM HEPES, pH7.4). Recombinant Protein A is immobilized on all four flow cells of a CM4 sensor chip at a level of 400-450 response units (RUs) using an amine coupling kit.
(§2) Binding is evaluated using multiple analytical cycles. Each cycle is performed at a flow rate of 100 μL/minute consisting of the following steps: injection of 15 μL of an antibody binding composition at 1 μg/mL, injection of 250 μL of either 5 nM TGF-beta 1, 5 nM latent TGF-beta 1, or 5 nM TGF-beta 3 followed by a short delay (5 min) for dissociation, and regeneration using two injections of 50 μL of 10 mM glycine hydrochloride, pH1.5. The amount of signal after capturing first the Mab, and then the ligand, are determined using the instrument control software. Since the signal is proportional to the mass of protein captured, the stoichiometry of the captured ligand is readily calculable (Table 4).

Assay [7] addresses human TGF-beta 1 (R&D Systems, Cat # 240-B/CF) (human) (UniProt P01137). In words: Biacore SPR, calculated koff/kon.
Assay [8] shares this target. Put plainly: Biacore SPR, mAb captured on Protein A, 5 nM ligand injected; stoichiometry from captured signals.
The target is the same in assay [9]. In words: KinExA 3000, equilibrium, Fab in solution. (A kinetic exclusion assay measures how much of one partner remains free in solution.)
The target is the same in assay [10]. In words: calculated from KinExA Kd and kon.
The target is the same in assay [11]. Put plainly: KinExA 3000, Fab in solution, antigen on beads.
Assay [12] deals with T4, human TGF-beta 1 (R&D Systems, Cat # 240-B/CF) (human, UniProt P01137 279-390). Put plainly: cell-based or functional assay.
Assay [13] deals with T4, human TGF-beta 1 (R&D Systems, Cat # …). In words: Biacore SPR, mAb captured on Protein A, TGF-beta 1 injected. As for the experimental part: (§3) Alternate methods of measuring kinetic constants are known, for example: affinity of a binding composition for human TGF-beta 1 (R&D Systems, Cat #240-B/CF), TGF-beta 2 (RDI, Cat # RDI-1035) and TGF-beta 3 (RDI, Cat # RDI-1036/CF) is measured using a BlAcore® 2000 instrument. The BIAcore® utilizes the optical properties of surface plasmon resonance to detect alteration in protein concentration of interacting molecules within a dextran biosensor matrix. Except as noted, all reagents and materials are purchased from BIAcore® AB (Upsala, Sweden). All measurements are performed at room temperature. Samples are dissolved in HBS-EP buffer (150 mM sodium chloride, 3 mM EDTA, 0.01% (w/v) surfactant P-20, and 10 mM HEPES, pH7.4). Recombinant Protein A is immobilized on all four flow cells of a CM4 sensor chip at a level of 400-450 response units (RUs) using an amine coupling kit.
(§4) Binding is evaluated using multiple analytical cycles. Each cycle is performed at a flow rate of 50 μL/minute and consists of the following steps: injection of 12 μL of an antibody binding composition at 0.5 μg/mL, injection of 250 μL of TGF-beta 1 (starting at 5 nM and using two-fold serial dilutions to 0.13 nM for each cycle, with two injections for each concentration) followed by either a short (5 minutes) or long (120 minutes) delay for dissociation, and regeneration using two injections of 50VL of 10 mM glycine hydrochloride, pH1.5. Association and dissociation rates for each cycle are determined by fitting of the biosensor data using to a simple association model using ClampXP (Center for Biomolecular Interaction Analysis, Univ. of Utah) to extract the kₒₙ and koff rate constants; the equilibrium binding constant Kd is calculated using the relationship Kd=koff/kₒₙ. Model data for invention compositions are in Table 3 shown below.

Assay [14] has as its target T5, human TGF-beta 3 (RDI, Cat # RDI-1036/CF) (human, UniProt P10600 301-412).
T5 construct: Bought recombinant protein; also called TGF-β3; TGF-p3
T5 sequence (looked up): T2 sequence (looked up)
In words: Biacore SPR, equilibrium fit, mAb captured on Protein A, TGF-β3 injected. As for the experimental part: (§5) Affinities of binding composition mAbs for TGF-p3 are determined using BIAcore methods. All measurements are performed at room temperature. Samples are dissolved in HBS-EP buffer (150 mM sodium chloride, 3 mM EDTA, 0.01% (w/v) surfactant P-20, and 10 mM HEPES, pH7.4). Recombinant Protein A is immobilized on four flow cells of a CM4 sensor chip at a level of 400-450 response units (RUs) using an amine coupling kit. Binding is evaluated over multiple analytical cycles. Each cycle is performed at a flow rate of 100 μL/minute consisting of the following steps: injection of 15 μL of an antibody binding composition at 0.5 μg/mL, injection of 250 μL of TGF-β3 (starting at 5 nM and using two-fold serial dilutions to 0.13 nM for each cycle, with two injections for each concentration) followed by a short (5 minutes) delay for dissociation, and regeneration using two injections of 50VL of 10 mM glycine hydrochloride, pH1.5.
(§6) Affinities are determined based upon the equilibrium signal as reached at varying TGF-β3 concentrations by measuring the average signal during the last 10 seconds of the TGF-β3 injections, and then fitting the resulting signals at all of the TGF-β3 concentrations to a simple binding equilibrium model in SCRUBBER (Center for Biomolecular Interaction Analysis, Univ. of Utah). Model data determined for tested human mab composition of the invention of Kd and specificity calculated by dividing the Kd for TGF-β3 binding by the Kd for TGF-β1 binding (herein) is shown below in Table 5.

Assay [15] deals with T4, human TGF-beta 1 (R&D Systems, Cat # …). In words: Biacore SPR, calculated koff/kon. The protocol: as §3, §4
Assay [16] addresses T5, human TGF-beta 3 (RDI, Cat # …). Put plainly: ratio of Biacore Kd for TGF-β3 to Kd for TGF-β1. The protocol:
as §5, §6

Assay [17] deals with T4, human TGF-beta 1 (R&D Systems, Cat # …). In words: Biacore SPR, mAb captured on Protein A, 5 nM ligand injected; stoichiometry from captured signals. The protocol: as §1, §2
The target in assay [18] is T5, human TGF-beta 3 (RDI, Cat # …). The assay is described as above. The protocol: as §1, §2

T3 sequence (P01137 30-390 limits assumed): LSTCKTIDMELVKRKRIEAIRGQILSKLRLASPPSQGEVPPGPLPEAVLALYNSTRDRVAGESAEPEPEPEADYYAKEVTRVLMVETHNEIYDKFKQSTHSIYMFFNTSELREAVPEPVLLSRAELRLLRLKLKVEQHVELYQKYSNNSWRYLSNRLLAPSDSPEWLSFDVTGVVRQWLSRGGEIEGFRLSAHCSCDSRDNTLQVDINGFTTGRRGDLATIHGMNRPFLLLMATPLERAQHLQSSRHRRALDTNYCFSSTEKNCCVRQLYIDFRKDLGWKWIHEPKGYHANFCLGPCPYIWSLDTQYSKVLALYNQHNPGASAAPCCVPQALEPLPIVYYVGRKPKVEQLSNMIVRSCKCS

B1: mAb 1D11 (R&D Systems) (antibody, V domains shown)
VH: QVQLQQSGPELVRPGASVKLSCKASGYIFITYWMNWVKQRPGQGLEWIGQIFPASGSTNYNEMFEGKATLTVDTSSSTAYMQLSSLTSEDSAVYYCARGDGNYALDAMDYWGQGTSVTVSS
VL: DIVLTQSPASLAVSLGQRATISCRASESVDSYGNSFMHWYQQKSGQPPKLLIYLASNLESGVPARFSGSGSRTDFTLTIDPVEADDAATYYCQQNNEDPLTFGAGTKLEIK
On to B1, for which the “fold less binding of the TGF-beta 1 mutein relative to wild type TGF-beta 1” value in [1] worked out at 2.5 fold.

B2: mAb C27 (antibody, IgG4, V domains shown)
VH: QVQLVQSGAEVKKPGASVKVSCKASGYTFTDYNIHWVRQAPGQGLEWMGYIYPYDGETGYNQKFKSRVTMTTDTSTSTAYMELRSLRSDDTAVYYCARGYRAFEYWGQGTLVTVSS
VL: DIQMTQSPSSLSASVGDRVTITCRASSSVPYMHWYQQKPEKAPKSLIYATSNLAFGVPSRFSGSGSGTDFTLTISSLQPEDFATYYCQQWDLNPPAFGQGTKLEIK
B2 displayed a Fold Improvement in IC50 relative to mAb2471 (HT-2 cell proliferation assay) in assay [2] of 401 fold. The Kd was 2200 pM in assay [3] and 0.6 pM in [7]. In addition, the koff in assay [4] worked out at 8e-06 s⁻¹. For the same molecule, the kon in assay [4] turned out to be 1.3e+07 M⁻¹ s⁻¹. Moreover, the Specificity (Kd, β3/Kd, β1) in [5] came to 3670 fold. For the same molecule, the Stoichiometry of ligand binding in [6] is 0.08; in assay [8], 1.74.

B3: Fab C27 (Fab, V domains shown)
VH: B2 VH
VL: B2 VL
In the case of B3, the Kd in [9] was 4.2 pM. The koff in [10] is 1.7e-05 s⁻¹. The kon in [11] was determined as 4.1e+06 M⁻¹ s⁻¹.

B4: mAb DM7 (antibody, IgG4, V domains shown)
VH: B2 VH with T28D, I34M, A102W, F103L, E104Y
VL: B2 VL with P30S, E40G, S45P, F55K
Take B4: in [12], the “Fold Improvement in IC50 relative to mAb2471 (HT-2 cell proliferation assay)” value worked out at 140 fold. This molecule also returned a koff in [13] below 7e-06 s⁻¹. This molecule had a kon in assay [13] of 1.3e+07 M⁻¹ s⁻¹. The Kd in [14] is 1160 pM; in assay [15], below 0.5 pM. Moreover, the “Specificity (Kd, β3/Kd, β1)” value in [16] came out at 2320 fold. Further, the “Stoichiometry of ligand binding” value was found to be 1.23 in assay [17], 0.54 in [18] and 0.04 in assay [6].

As usually defined, the Kd is the equilibrium constant for the complex coming apart. As a reminder, the koff is the first-order rate constant of dissociation. What is called kon is the second-order rate constant of association.
